Assay results as given in IntAct's records for PubMed 18045938.

B1: Envelope glycoprotein B (Human herpesvirus 8), F5HB81 (parent)
chain: MTPRSRLATLGTVILLVCFCAGAAHSRGDTFQTSSSPTPPGSSSKAPTKPGEEASGPKSVDFYQFRVCSASITGELFRFNLEQTCPDTKDKYHQEGILLVYKKNIVPHIFKVRRYRKIATSVTVYRGLTESAITNKYELPRPVPLYEISHMDSTYQCFSSMKVNVNGVENTFTDRDDVNTTVFLQPVEGLTDNIQRYFSQPVIYAEPGWFPGIYRVRTTVNCEIVDMIARSAEPYNYFVTSLGDTVEVSPFCYNESSCSTTPSNKNGLSVQVVLNHTVVTYSDRGTSPTPQNRIFVETGAYTLSWASESKTTAVCPLALWKTFPRSIQTTHEDSFHFVANEITATFTAPLTPVANFTDTYSCLTSDINTTLNASKAKLASTHVPNGTVQYFHTTGGLYLVWQPMSAINLTHAQGDSGNPTSSPPPSASPMTTSASRRKRRSASTAAAGGGGSTDNLSYTQLQFAYDKLRDGINQVLEELSRAWCREQVRDNLMWYELSKINPTSVMTAIYGRPVSAKFVGDAISVTECINVDQSSVNIHKSLRTNSKDVCYARPLVTFKFLNSSNLFTGQLGARNEIILTNNQVETCKDTCEHYFITRNETLVYKDYAYLRTINTTDISTLNTFIALNLSFIQNIDFKAIELYSSAEKRLASSVFDLETMFREYNYYTHRLAGLREDLDNTIDMNKERFVRDLSEIVADLGGIGKTVVNVASSVVTLCGSLVTGFINFIKHPLGGMLMIIIVIAIILIIFMLSRRTNTIAQAPVKMIYPDVDRRAPPSGGAPTREEIKNILLGMHQLQQEERQKADDLKKSTPSVFQRTANGLRQRLRGYKPLTQSLDISPETGE

Variants of: B1
Conditions: with itb3_human ITGB3, P05106
itb3_human ITGB3, P05106, sequence (P05106 whole entry): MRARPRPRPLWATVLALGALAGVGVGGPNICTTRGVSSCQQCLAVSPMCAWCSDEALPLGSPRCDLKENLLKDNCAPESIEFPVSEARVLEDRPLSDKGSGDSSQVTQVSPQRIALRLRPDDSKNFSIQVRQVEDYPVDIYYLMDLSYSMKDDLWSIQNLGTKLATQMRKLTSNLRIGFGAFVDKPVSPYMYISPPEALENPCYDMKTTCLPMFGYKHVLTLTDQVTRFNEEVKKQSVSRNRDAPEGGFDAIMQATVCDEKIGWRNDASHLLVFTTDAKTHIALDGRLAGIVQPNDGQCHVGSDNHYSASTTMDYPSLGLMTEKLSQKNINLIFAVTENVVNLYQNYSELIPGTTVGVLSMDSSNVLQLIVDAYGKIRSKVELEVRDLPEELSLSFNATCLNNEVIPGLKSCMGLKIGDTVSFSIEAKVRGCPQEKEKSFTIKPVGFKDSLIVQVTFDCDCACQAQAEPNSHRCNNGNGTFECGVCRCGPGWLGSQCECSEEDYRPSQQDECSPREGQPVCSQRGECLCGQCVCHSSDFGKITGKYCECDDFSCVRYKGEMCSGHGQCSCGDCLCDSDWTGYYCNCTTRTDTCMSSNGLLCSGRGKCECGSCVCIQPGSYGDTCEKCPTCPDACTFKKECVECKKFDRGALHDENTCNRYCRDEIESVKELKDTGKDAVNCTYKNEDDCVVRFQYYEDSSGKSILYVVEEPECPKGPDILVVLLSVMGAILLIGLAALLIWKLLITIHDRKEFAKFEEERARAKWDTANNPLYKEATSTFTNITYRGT

Variant | effect of a mutation on the interaction
D29E | disrupting interaction
